Data as given in paper PMC8050884.

How the values were obtained:
[1] = target: soluble trimeric SARS-CoV-2 spike protein ectodomain (residues 1-1211) with phage foldon trimerization motif, 6xHis tag and AviTag (SARS-CoV-2 | not stated) (UniProt P0DTC2); assay: negative stain electron microscopy
[2] = target: SARS-CoV-2 spike trimer (aa 1-1208, furin site mutated, K986P/V987P) fused to human resistin (aa 23-108), FLAG-(His)6 (SARS-CoV-2 | human) (UniProt P0DTC2); assay: SEC-MALS; SEC-UPLC in PBS + 0.02% Tween-20 on Acquity BEH450 column coupled to MALS detector and refractometer; data not shown

Row | Substance | stoichiometry N [1] | stoichiometry N [2]
1 | soluble trimeric SARS-CoV-2 spike protein ectodomain (residues 1-1211) with phage foldon trimerization motif, 6xHis tag and AviTag (from UniProt P0DTC2 14-1211) | 3 | –
2 | SARS-CoV-2 spike trimer (aa 1-1208, furin site mutated, K986P/V987P) fused to human resistin (aa 23-108), FLAG-(His)6 (from UniProt P0DTC2;Q9HD89) | – | 3
